In patent US20150231240A1, “ANTI-C16ORF54 ANTIBODIES AND METHODS OF USE THEREOF” (priority 2012, published 2015):
Positions count from the first letter of the chain named.

B1: R29-8-50C (antibody, V domains shown)
VH: EVKLVESGGGLVKPGGSLKFSCAASGFTFSSYAVSWVRQTPEKRLEWVASITSGGRTYYPDSVKGRFTISRDNARSMLYLHMSSLRSEDTAMYYCTRGWDENDLWGQGTTLTVSS
VL: DVVMTQTPLSLPVSLGDQASISCRSSQSLVYSNGNTYLHWYLQRPGQSPQLLIYKVSNRFSGVPDRFSGSGSGTDFTLKISRVEAEDLGVYFCSQTTHVPWTFGGGTKLEIK
notes: Murine monoclonal antibody from a hybridoma
B2: R29-8-9B (antibody, V domains shown)
VH: EVKLVESGGGVVKPGGSLKLSCAASGFTFSSYAMSWFRQTSEMSLEWVASITGGGGTYYPDSVKGRFTISRDTVRNILYLQMRSLRSGDTAIYYCARGWDENDYWGQGTTLTVSS
VL: B1 VL with T7I, Y31F, L42F, R44K, Q50K, T77I, K79R, T96S
notes: as for B1
B3: R29-8-19B (antibody, V domains shown)
VH: B1 VH
VL: B1 VL with R44K
notes: as for B1
B4: R29-8-28C (antibody, V domains shown)
VH: EVKLVESGGGVVKPGGSLTLSCAASGFTFSNYAVSWFRQTPEKRLEWVASITSGGRTYYPDSMKGRFTISRDNARNILYLQMSSLRSEDTAIYYCGRGWDENDYWGQGTTLTVSS
VL: B1 VL with R44K, Q50K, S81N
notes: as for B1
B5: R29-8-120B (antibody, V domains shown)
VH: KVNLVESGGGLVKAGGSLKLSCAASGFTFSIYAMSWFRQTPEKRLEWVASITGGGTNFYPDSVRGRFTISRDNVRNILYLQMSSLRSEDTAMYYCARGWDENDYWGQGTTLTVSS
VL: B1 VL with R44K, Q50K, T96S
notes: as for B1
B6: R29-7A-53A (antibody, V domains shown)
VH: QVQLKESGPGLVAPSQSLSITCTVSGFSLTDYAISWIRQPPGKGLEWLGVIWGGGRTYSNSALKSRLSISKDNSRSQIFLKMNSLQTDDTAMYYCAKHEEVSRFAYWGQGTLVTVSV
VL: B1 VL with M4L, T36S, R44K, Q50K, S81T, T96S, V99I, W101L, G105A, I111L
notes: Murine monoclonal antibody from a hybridoma; also called R29-7-53A
B7: R29-7A-54C (antibody, V domains shown)
VH: B6 VH
VL: B1 VL with M4L, T36S, R44K, Q50K, S81T, T96S, V99I, W101L, G105A, I111L
notes: Murine monoclonal antibody from a hybridoma; also called R29-7-54C
B8: R29-8-12A (antibody, V domains shown)
VH: B1 VH
VL: B1 VL with R44K
notes: as for B1
B9: R29-8-36C (antibody, V domains shown)
VH: B1 VH with T57S
VL: B1 VL with P12F, V30L
notes: as for B1
B10: R29-7-1C-mcMMAF (protein)
VH: DVQLQESGPGLVKPSQSLSLTCTVTGYSITSDYAWNWIRQFPGNKLEWMGYISYSGSIRYNPSLKSRISITRDTSKNQFFLQLNSVTTEDTATYYCAREKYDNYYYAMDYWGQGTSVTVSS
VL: DIVMSQSPSSLAVSVGEKVTLSCKSSQNLLYSTNQKNYLAWYQQKPGQSPKLLIYWASTRESGVPDRFTGSGSGTDFTLTISSVKAEDLAVYYCQQYYSYRTFGGGTKLEIK
modifications: maleimidocaproyl-monomethylauristatin F (MC-MMAF) on reduced cysteine thiols of the antibody; positions not given
B11: R29-8-57B mcMMAF (protein)
VH: B10 VH with S53N, I58T, Q78H, T88P, Y95H, K100R, N103G, Y104V, A107G
VL: B10 VL with L21M, N28S, T33S, A86T
modifications: maleimidocaproyl-monomethylauristatin F (MC-MMAF) on reduced cysteine thiols of the antibody; positions not given
B12: R29-67-7A mcMMAF (protein)
VH: B10 VH with S53N, S57R, I58T, K65N, I70L, K76T, K100N, N103Y, Y104E, Y105F
VL: B10 VL with L21M, T33S, S99I
modifications: maleimidocaproyl-monomethylauristatin F (MC-MMAF) on reduced cysteine thiols of the antibody; positions not given

Target: T1, cynomolgus monkey C16orf54 (cynomolgus monkey (Macaca fascicularis), UniProt Q6UWD8 1-224 (human entry))
T1 construct: also called cyno C16orf54; cyno-C16orf54
T1 chain: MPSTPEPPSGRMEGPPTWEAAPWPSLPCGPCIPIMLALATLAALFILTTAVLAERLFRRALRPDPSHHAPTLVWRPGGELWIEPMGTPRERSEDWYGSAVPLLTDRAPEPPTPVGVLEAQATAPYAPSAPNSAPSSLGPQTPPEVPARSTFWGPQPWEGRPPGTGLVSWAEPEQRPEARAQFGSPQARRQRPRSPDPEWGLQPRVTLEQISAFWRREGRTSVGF
Assay: flow cytometry, 10 ug/ml antibody, F279-cyno-C16orf54 cells
Details: not given
Method: (§1) Anti-C16orf54 antibodies which bound to human C16orf54 were tested for their reactivity with human C16orf54 and their crossreactivity with C16orf54 from cynomolgous monkeys (cyno C16orf54) using flow cytometry. Sarcoma cells transfected with and expressing human C16orf54 or cyno C16orf54 were washed with PBS with 0.1% BSA, incubated with FcX receptor blocking solution (BioLegend) for 15 minutes, incubated with 10 μg/ml of anti-C16orf54 antibody for 1 hour at 4° C., washed twice with PBS with 0.1% BSA, incubated with 20 μg/ml of R-Phycoerythrin-AffiniPure F(ab′)2 Fragment Goat Anti-Mouse IgG, Fcγ Fragment Specific (Jackson ImmunoResearch) for 30 minutes at 4° C., washed twice with PBS with 0.1% BSA, incubated with the viability dye TO-PRO-3 iodide (Life Technologies), and immediately analyzed on a MACSQuant Analyzer instrument (Miltenyi). For each cell line and anti-C16orf54 antibody, a fold change was derived by dividing the median fluorescence intensity for Phycoerythrin in the live cell population for the anti-C16orf54 antibody by the median fluorescence intensity for Phycoerythrin in the live cell population for the IgG isotype control antibody. A number of anti-C16orf54 antibodies (see, e.g., R29-8-57B, R29-8-136C, R29-7-1C, R29-67-7A, R29-67-4A, and R29-7-2A) bind human C16orf54 and also bind (e.g., are crossreactive with) cyno C16orf54.

Molecule | Median fold change relative to IgG control
B1 | 3.2 fold
B2 | 2 fold
B3 | 4.5 fold
B4 | 3.3 fold
B5 | 5.2 fold
B6 | 1.2 fold
B7 | 1 fold
B8 | 3.6 fold
B9 | 3.6 fold

target: T2, human C16orf54 (human, UniProt Q6UWD8 1-224); assay: flow cytometry, 10 ug/ml antibody, D42M1-huC16orf54 cells; details: not given
T2 construct: also called huC16orf54; hC16orf54
T2 sequence: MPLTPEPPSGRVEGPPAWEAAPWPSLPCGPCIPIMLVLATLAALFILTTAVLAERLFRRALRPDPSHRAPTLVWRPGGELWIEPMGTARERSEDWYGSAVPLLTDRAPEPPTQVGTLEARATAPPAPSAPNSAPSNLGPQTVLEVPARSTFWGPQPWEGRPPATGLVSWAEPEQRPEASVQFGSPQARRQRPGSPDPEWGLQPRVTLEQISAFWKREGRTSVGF
Method: as §1

Molecule | Median fold change relative to IgG control
B1 | 159 fold
B2 | 194 fold
B3 | 198 fold
B4 | 156 fold
B5 | 106 fold
B6 | 5.7 fold
B7 | 12.1 fold
B8 | 193 fold
B9 | 184 fold

target: T2, human C16orf54; assay: flow cytometry titration, KG1 cells (endogenous human C16orf54); details: not given

Molecule | EC50
B1 | 0.7 nM
B2 | 1.5 nM
B3 | 0.9 nM
B4 | 2.1 nM
B5 | 2.6 nM
B8 | 1.1 nM
B9 | 0.6 nM

tested on: KG-1 (acute myeloid leukemia) xenograft; assay: not given; type: in vivo, NOD-SCID mice; details: Table 44; dose not given; KG-1 AML model
Method: Subcutaneous tumors are generated by injection of 1×10^7 cancer cells in a mixture of PBS (without magnesium or calcium) and BD Matrigel™ (BD Biosciences) at a 1:1 ratio in the right flank of female SCID or nu^−/− mice. The injected total volume per mouse is […] with 50% being Matrigel (BD Biosciences). Mice are randomized once tumors reach a size between 65-200 mm^3. Antibodies are administered weekly, and body weights and tumors are measured once and twice weekly, respectively. Tumor volume is calculated as described (van der Horst et al. (2009) Neoplasia 11: 355-364). As a negative control, mice are injected with either purified mouse IgG or PBS; or a purified monoclonal antibody that recognizes an antigen other than C16orf54.
Anti-C16orf54 antibodies were tested for their anti-tumor activity in an animal-tumor model. For these studies, the cell line KG-1 (acute myeloid leukemia) was obtained from ATCC and cultured according to the suppliers' protocols. Animals were obtained from Taconic (Hudson, N.Y.). Studies were conducted with anti-C16orf54 antibodies and antibody-drug conjugates (ADCs) of these antibodies.
In these experiments, 4-6 week-old immunodeficient NOD-SCID female mice were used for the KG-1 tumor model. Mice were subcutaneously injected on the right flank with 6×10^6 viable cells (KG-1) in a mixture of PBS (without magnesium or calcium) and BD Matrigel™ (BD Biosciences). Once the tumor reached a size between 65-200 mm^3 mice were randomized. Anti-C16orf54 antibodies were administered weekly, and bodyweights and tumors were measured once and twice weekly, respectively. Tumor volume was calculated as described (van der Horst et al., supra). Experiments were performed on groups of at least eight animals per experimental point.
Statistical significance between treatment and control groups was calculated using the Graphpad Prism® software package and applying Student's two-tailed t-test. A p-value of less than 0.05 was considered significant.

Molecule | TGI | Volume
O=P1(N(CCCl)CCCl)NCCCO1 (stereo not drawn) [Cyclophosphamide] | −42% | 1580 mm^3

target: T2, human C16orf54; assay: cell-based or functional assay; details: not given

Molecule | IC50 nM, cell viability, C16orf54 expressing sarcoma line 2, 72 hours | IC50 (nM), cell viability, C16orf54 expressing Sarcoma line 1, 72 hours
B10 | 0.2 nM | 0.1 nM
B11 | 0.1 nM | 0.2 nM
B12 | 0.1 nM | 0.1 nM
